Measured values taken from patent US6936457.

Target: human neuronal nicotinic acetylcholine receptor α7 subunit (human), P36544
Sequence (P36544 23-502 limits assumed): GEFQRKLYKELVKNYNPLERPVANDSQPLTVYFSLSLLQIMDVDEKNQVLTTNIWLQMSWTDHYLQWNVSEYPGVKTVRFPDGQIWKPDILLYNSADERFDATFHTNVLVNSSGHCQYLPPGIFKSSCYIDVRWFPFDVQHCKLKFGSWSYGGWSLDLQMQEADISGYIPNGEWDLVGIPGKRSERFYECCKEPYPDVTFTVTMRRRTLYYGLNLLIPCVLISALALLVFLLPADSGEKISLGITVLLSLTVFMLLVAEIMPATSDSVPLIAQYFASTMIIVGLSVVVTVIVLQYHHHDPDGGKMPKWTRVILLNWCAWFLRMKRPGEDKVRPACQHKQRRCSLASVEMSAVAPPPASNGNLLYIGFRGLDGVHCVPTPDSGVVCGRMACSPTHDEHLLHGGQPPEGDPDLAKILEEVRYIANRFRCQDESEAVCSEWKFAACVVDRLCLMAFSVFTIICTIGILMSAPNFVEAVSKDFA

B1: α-bungarotoxin, P60615 22-95 (peptide)
chain: IVCHTTATSPISAVTCPPGENLCYRKMWCDAFCSSRGKVVELGCAATCPSKKPYEEVTCCSTDKCNPHPKQRPG
modifications: not checked
B1 showed an IC50 of 3 nM and a percent of [3H]-MLA binding displaced of 65%.
